Measurements published in patent US20250026823A1.

Experiments:
[1] = target: extracellular domain of CLEC12A (amino acids 75 to 275) coupled to a His-tag (Sino Biological, cat.no. 11896-H07H) (UniProt Q5QGZ9); assay: ELISA, extracellular domain of CLEC12A coated at 2 µg/ml
[2] = target: CLEC12A expressed on cells (CLEC12A-transfected CHO cells; HL60 cells) (UniProt Q5QGZ9); assay: flow cytometry on HL60 cells
[3] = target: CLEC12A expressed on cells (CLEC12A-transfected CHO cells; HL60 cells) (UniProt Q5QGZ9); assay: flow cytometry on CLEC12A-transfected CHO cells

Chain of CLEC12A expressed on cells (CLEC12A-transfected CHO cells; HL60 cells) (Q5QGZ9 whole entry): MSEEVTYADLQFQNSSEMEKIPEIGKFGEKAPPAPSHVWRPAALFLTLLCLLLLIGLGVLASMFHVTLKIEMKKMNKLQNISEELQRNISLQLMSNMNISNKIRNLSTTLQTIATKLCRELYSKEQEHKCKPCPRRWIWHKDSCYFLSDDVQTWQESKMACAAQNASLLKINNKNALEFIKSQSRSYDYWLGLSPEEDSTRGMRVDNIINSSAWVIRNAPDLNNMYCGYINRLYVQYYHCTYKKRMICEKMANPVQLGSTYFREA
Chain of extracellular domain of CLEC12A (amino acids 75 to 275) coupled to a His-tag (Sino Biological, cat.no. 11896-H07H) (Q5QGZ9 65-265 limits assumed): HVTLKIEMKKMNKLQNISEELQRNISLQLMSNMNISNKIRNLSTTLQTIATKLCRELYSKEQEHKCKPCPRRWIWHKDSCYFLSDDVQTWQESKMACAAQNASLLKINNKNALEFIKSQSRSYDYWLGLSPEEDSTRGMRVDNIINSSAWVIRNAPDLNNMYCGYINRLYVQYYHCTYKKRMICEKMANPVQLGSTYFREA

- optical density [1]: 0.127
- mean fluorescent intensity [2]: 116
- mean fluorescent intensity [3]: 289
Substance: irrelevant IgG1 isotype control mAb (antibody)
